{"source": "patent US20190106498A1", "about": "“TREATMENT FOR ACUTE MYELOID LEUKEMIA” (priority 2017, published 2019)", "molecules": {"B1": {"name": "ARGX-110: IgG1 anti-CD70 antibody with defucosylated Fc region; VH SEQ ID NO: 4, VL SEQ ID NO: 8 (antibody, V domains shown)", "VH": "EVQLVESGGGLVQPGGSLRLSCAASGFTFSVYYMNWVRQAPGKGLEWVSDINNEGGTTYYADSVKGRFTISRDNSKNSLYLQMNSLRAEDTAVYYCARDAGYSNHVPIFDSWGQGTLVTVSS", "VL": "QAVVTQEPSLTVSPGGTVTLTCGLKSGSVTSDNFPTWYQQTPGQAPRLLIYNTNTRHSGVPDRFSGSILGNKAALTITGAQADDEAEYFCALFISNPSVEFGGGTQLTVLG", "modifications": "IgG1, defucosylated Fc; Custom antibody fragment"}}, "key": {"[1]": {"assay": "Phase I/II trial: adverse events and toxicity", "protocol": "(§1) Subjects received a loading dose of ARGX-110 on Day −14, followed by administration of ARGX-110 in combination with standard doses of AZA. Doses of ARGX-110 were administered intravenously every 2 weeks (loading dose at Day −14 and further doses on Days 3 and 17) in combination with standard doses of AZA to determine the dose limiting toxicity (see FIG. 4). The first patient of each cohort was monitored until day 7 before a second patient was included. […] The ARGX-110 dose level in the first cohort in Phase I was 1 mg/kg body weight.\n(§2) All subjects in the study received a single loading dose of ARGX-110 on Day −14, at the same dose level as the bi-weekly dose. Subjects in Phase I of the study received one of the following treatments: • Cohort 1: 1 mg/kg body weight IV on Days 3 and 17 of a 28-day cycle • Cohort 2: 3 mg/kg body weight IV on Days 3 and 17 of a 28-day cycle • Cohort 3: 10 mg/kg body weight IV on Days 3 and 17 of a 28-day cycle • Cohort 4: 20 mg/kg body weight IV on Days 3 and 17 of a 28-day cycle"}, "[2]": {"settings": "in vivo", "protocol": "as §1, §2"}}}
{"molecule": "B1", "values": [{"measurement": "Anaemia, Grade 3-5 adverse events: (patients)", "setting": "[1]; Cohort 1 (1 mg/kg), with AZA", "value": 1}, {"measurement": "Anaemia, Grade 3-5 adverse events: Events", "setting": "[1]; Cohort 1 (1 mg/kg), with AZA", "value": 4}, {"measurement": "Febrile Neutropenia, Grade 3-5 adverse events: (patients)", "setting": "[1]; Cohort 1 (1 mg/kg), with AZA", "value": "2 (2)"}, {"measurement": "Febrile Neutropenia, Grade 3-5 adverse events: Events", "setting": "[1]; Cohort 1 (1 mg/kg), with AZA", "value": "2 (2)"}, {"measurement": "Leukopenia, Grade 3-5 adverse events: (patients)", "setting": "[1]; Cohort 1 (1 mg/kg), with AZA", "value": "1 (1)"}, {"measurement": "Leukopenia, Grade 3-5 adverse events: Events", "setting": "[1]; Cohort 1 (1 mg/kg), with AZA", "value": "1 (1)"}, {"measurement": "Neutropenia, Grade 3-5 adverse events: (patients)", "setting": "[1]; Cohort 1 (1 mg/kg), with AZA", "value": 1}, {"measurement": "Neutropenia, Grade 3-5 adverse events: Events", "setting": "[1]; Cohort 1 (1 mg/kg), with AZA", "value": 2}, {"measurement": "Pleuropericarditis, Grade 3-5 adverse events: (patients)", "setting": "[1]; Cohort 1 (1 mg/kg), with AZA", "value": "1 (1)"}, {"measurement": "Pleuropericarditis, Grade 3-5 adverse events: Events", "setting": "[1]; Cohort 1 (1 mg/kg), with AZA", "value": "1 (1)"}, {"measurement": "Thrombocytopenia, Grade 3-5 adverse events: (patients)", "setting": "[1]; Cohort 1 (1 mg/kg), with AZA", "value": 2}, {"measurement": "Thrombocytopenia, Grade 3-5 adverse events: Events", "setting": "[1]; Cohort 1 (1 mg/kg), with AZA", "value": 8}, {"measurement": "Anaemia, Grade 3-5 adverse events: (patients)", "setting": "[1]; Cohort 2 (3 mg/kg), with AZA", "value": 3}, {"measurement": "Anaemia, Grade 3-5 adverse events: Events", "setting": "[1]; Cohort 2 (3 mg/kg), with AZA", "value": 10}, {"measurement": "Constipation, Grade 3-5 adverse events: (patients)", "setting": "[1]; Cohort 2 (3 mg/kg), with AZA", "value": "1 (1)"}, {"measurement": "Constipation, Grade 3-5 adverse events: Events", "setting": "[1]; Cohort 2 (3 mg/kg), with AZA", "value": "1 (1)"}, {"measurement": "Fever, Grade 3-5 adverse events: (patients)", "setting": "[1]; Cohort 2 (3 mg/kg), with AZA", "value": "1 (1)"}, {"measurement": "Fever, Grade 3-5 adverse events: Events", "setting": "[1]; Cohort 2 (3 mg/kg), with AZA", "value": "1 (1)"}, {"measurement": "Hypertension, Grade 3-5 adverse events: (patients)", "setting": "[1]; Cohort 2 (3 mg/kg), with AZA", "value": 1}, {"measurement": "Hypertension, Grade 3-5 adverse events: Events", "setting": "[1]; Cohort 2 (3 mg/kg), with AZA", "value": 2}, {"measurement": "Hypokalaemia, Grade 3-5 adverse events: (patients)", "setting": "[1]; Cohort 2 (3 mg/kg), with AZA", "value": "1 (1)"}, {"measurement": "Hypokalaemia, Grade 3-5 adverse events: Events", "setting": "[1]; Cohort 2 (3 mg/kg), with AZA", "value": "1 (1)"}, {"measurement": "Leukopenia, Grade 3-5 adverse events: (patients)", "setting": "[1]; Cohort 2 (3 mg/kg), with AZA", "value": "1 (1)"}, {"measurement": "Leukopenia, Grade 3-5 adverse events: Events", "setting": "[1]; Cohort 2 (3 mg/kg), with AZA", "value": "1 (1)"}, {"measurement": "Neutropenia, Grade 3-5 adverse events: (patients)", "setting": "[1]; Cohort 2 (3 mg/kg), with AZA", "value": 1}, {"measurement": "Neutropenia, Grade 3-5 adverse events: Events", "setting": "[1]; Cohort 2 (3 mg/kg), with AZA", "value": 4}, {"measurement": "Proctitis, Grade 3-5 adverse events: (patients)", "setting": "[1]; Cohort 2 (3 mg/kg), with AZA", "value": 1}, {"measurement": "Proctitis, Grade 3-5 adverse events: Events", "setting": "[1]; Cohort 2 (3 mg/kg), with AZA", "value": 2}, {"measurement": "Thrombocytopenia, Grade 3-5 adverse events: (patients)", "setting": "[1]; Cohort 2 (3 mg/kg), with AZA", "value": "3 (3)"}, {"measurement": "Thrombocytopenia, Grade 3-5 adverse events: Events", "setting": "[1]; Cohort 2 (3 mg/kg), with AZA", "value": "3 (3)"}, {"measurement": "Disease Progression, Grade 3-5 adverse events: (patients)", "setting": "[1]; Cohort 3 (10 mg/kg), with AZA", "value": "1 (1)"}, {"measurement": "Disease Progression, Grade 3-5 adverse events: Events", "setting": "[1]; Cohort 3 (10 mg/kg), with AZA", "value": "1 (1)"}, {"measurement": "Febrile Neutropenia, Grade 3-5 adverse events: (patients)", "setting": "[1]; Cohort 3 (10 mg/kg), with AZA", "value": "1 (1)"}, {"measurement": "Febrile Neutropenia, Grade 3-5 adverse events: Events", "setting": "[1]; Cohort 3 (10 mg/kg), with AZA", "value": "1 (1)"}, {"measurement": "Thrombocytopenia, Grade 3-5 adverse events: (patients)", "setting": "[1]; Cohort 3 (10 mg/kg), with AZA", "value": 1}, {"measurement": "Thrombocytopenia, Grade 3-5 adverse events: Events", "setting": "[1]; Cohort 3 (10 mg/kg), with AZA", "value": 2}, {"measurement": "Anaemia, Grade 3-5 adverse events: (patients)", "setting": "[1]; Cohort 4 (20 mg/kg), with AZA", "value": 1}, {"measurement": "Anaemia, Grade 3-5 adverse events: Events", "setting": "[1]; Cohort 4 (20 mg/kg), with AZA", "value": 2}, {"measurement": "Febrile Neutropenia, Grade 3-5 adverse events: (patients)", "setting": "[1]; Cohort 4 (20 mg/kg), with AZA", "value": "1 (1)"}, {"measurement": "Febrile Neutropenia, Grade 3-5 adverse events: Events", "setting": "[1]; Cohort 4 (20 mg/kg), with AZA", "value": "1 (1)"}, {"measurement": "Thrombocytopenia, Grade 3-5 adverse events: (patients)", "setting": "[1]; Cohort 4 (20 mg/kg), with AZA", "value": "2 (2)"}, {"measurement": "Thrombocytopenia, Grade 3-5 adverse events: Events", "setting": "[1]; Cohort 4 (20 mg/kg), with AZA", "value": "2 (2)"}, {"measurement": "Anaemia, Grade 3-5 adverse events: Total", "setting": "[1]; all cohorts", "value": 16}, {"measurement": "Constipation, Grade 3-5 adverse events: Total", "setting": "[1]; all cohorts", "value": 1}, {"measurement": "Disease Progression, Grade 3-5 adverse events: Total", "setting": "[1]; all cohorts", "value": 1}, {"measurement": "Febrile Neutropenia, Grade 3-5 adverse events: Total", "setting": "[1]; all cohorts", "value": 4}, {"measurement": "Fever, Grade 3-5 adverse events: Total", "setting": "[1]; all cohorts", "value": 1}, {"measurement": "Hypertension, Grade 3-5 adverse events: Total", "setting": "[1]; all cohorts", "value": 2}, {"measurement": "Hypokalaemia, Grade 3-5 adverse events: Total", "setting": "[1]; all cohorts", "value": 1}, {"measurement": "Leukopenia, Grade 3-5 adverse events: Total", "setting": "[1]; all cohorts", "value": 1}, {"measurement": "Neutropenia, Grade 3-5 adverse events: Total", "setting": "[1]; all cohorts", "value": 6}, {"measurement": "Pleuropericarditis, Grade 3-5 adverse events: Total", "setting": "[1]; all cohorts", "value": 1}, {"measurement": "Proctitis, Grade 3-5 adverse events: Total", "setting": "[1]; all cohorts", "value": 2}, {"measurement": "Thrombocytopenia, Grade 3-5 adverse events: Total", "setting": "[1]; all cohorts", "value": 15}, {"measurement": "toxicity", "setting": "[1]; monotherapy or in combination with aza", "value": "did not result in any observed increase in toxicity"}, {"measurement": "Lung infection, Grade 3-5 adverse events: Total", "setting": "[2]", "value": 1}, {"measurement": "Tooth Infection, Grade 3-5 adverse events: Total", "setting": "[2]", "value": 1}, {"measurement": "Lung infection, Grade 3-5 adverse events: (patients)", "setting": "[2]; 1 mg/kg", "value": "1 (1)"}, {"measurement": "Lung infection, Grade 3-5 adverse events: Events", "setting": "[2]; 1 mg/kg", "value": "1 (1)"}, {"measurement": "Tooth Infection, Grade 3-5 adverse events: (patients)", "setting": "[2]; 3 mg/kg", "value": "1 (1)"}, {"measurement": "Tooth Infection, Grade 3-5 adverse events: Events", "setting": "[2]; 3 mg/kg", "value": "1 (1)"}]}
